Here are results for one molecule from patent US20250269056A1 (published 2025).

The target in the test is T1, epidermal growth factor receptor (EGFR) on EGFR-expressing cell lines (HeLa, HT-29, MRC-5, A549) (UniProt P00533 25-1210).
T1 construct: whole, on cells; EGFR expression in the cell lines was verified by Western blot; HEK293T served as the EGFR-negative line; also called EGF receptor
The test is described as follows: fluorescence microscopy of Alexa Fluor 488-labelled phage on HeLa cells.

B1: M13KO7 helper phage (no display) (other)
chain: AETVESCLAKPHTENSFTNVWKDDKTLDRYANYEGCLWNATGVVVCTGDETQCYGTWVPIGLAIPENEGGGSEGGGSEGGGSEGGGTKPPEYGDTPIPGYTYINPLDGTYPPGTEQNPANPNPSLEESQPLNTFMFQNNRFRNRQGALTVYTGTVTQGTDPVKTYYQYTPVSSKAMYDAYWNGKFRDCAFHSGFNEDPFVCEYQGQSSDLPQPPVNAGGGSGGGSGGGSEGGGSEGGGSEGGGSEGGGSGGGSGSGDFDYEKMANANKGAMTENADENALQSDAKGKLDSVATDYGAAIDGFIGDVSGLANGNGATGDFAGSNSQMAQVGDGDNSPLMNNFRQYLPSLPQSVECRPFVFSAGKPYEFSIDCDKINLFRGVFAFLLYVATFMYVFSTFANILRNKES
notes: mature; Whole phage particle without a ligand, labelled with Alexa Fluor 488 in the localisation experiment; also called EGF- phage; non-displaying phage
For the molecule B1, the binding result is “no binding (tested: 5×10^7 virions/mL)”.
